Test results published in patent US20190022243A1.

Target: human AXL (full length) (human (Homo sapiens)) (UniProt P30530)
Assay: flow cytometry, A431 cells pre-incubated with 10 µg/mL Gas6 (competitor: Gas6)

B1: IgG1-YW327.6S2 (antibody, from another filing, V domains shown)
VH: EVQLVESGGGLVQPGGSLRLSCAASGFSLSGSWIHWVRQAPGKGLEWVGWINPYRGYAYYADSVKGRFTISADTSKNTAYLQMNSLRAEDTAVYYCAREYSGWGGSSVGYAMDYWGQGTLVTVSS
VL: DIQMTQSPSSLSASVGDRVTITCRASQDVSTAVAWYQQKPGKAPKLLIYSASFLYSGVPSRFSGSGSGTDFTLTISSLQPEDFATYYCQQSYTTPPTFGQGTKVEIK
Work on B1 yielded a fold higher EC50 after Gas6 pre-incubation than without Gas6 of 21 fold and a maximal binding in the presence of Gas6 (% of binding without Gas6) of 19%.
